The target in this experiment is H-2Kb on the surface of RMA-S cells (mouse (endogenous in RMA-S)). Briefly: stabilisation of Kb on RMA-S cells.

B1: OVA55-62/P6D->E (peptide)
peptide: KVVRFEKL
B1: the relative efficiency of peptide-binding to Kb (parent OVA55-62 = 1) stood at 10.

B2: OVA257-264/P3I->V (peptide)
peptide: SIVNFEKL
As to B2, the relative efficiency of peptide-binding to Kb (parent OVA257-264 = 1) amounted to 1.

B3: OVA55-62/P4R->N (peptide)
peptide: KVVNFDKL
Take B3: the relative efficiency of peptide-binding to Kb (parent OVA55-62 = 1) came out at 2.

B4: OVA257-264/P1S->K (peptide)
peptide: KIINFEKL
As to B4, the relative efficiency of peptide-binding to Kb (parent OVA257-264 = 1) turned out to be 1.

B5: OVA55-62/P3V->I (peptide)
peptide: KVIRFDKL
Regarding B5, the relative efficiency of peptide-binding to Kb (parent OVA55-62 = 1) turned out to be 1.

B6: OVA55-62/P1K->S (peptide)
peptide: SVVRFDKL
For B6, the relative efficiency of peptide-binding to Kb (parent OVA55-62 = 1) turned out to be 2.

B7: OVA257-264/P4N->R (peptide)
peptide: SIIRFEKL
Regarding B7, the relative efficiency of peptide-binding to Kb (parent OVA257-264 = 1) stood at 1.

Values taken from article PMC2191679.
